# Assay results taken from US9732156B2, “Methods of treating rheumatoid arthritis using antibodies to matrix metalloproteinase 9” (Gilead Biologics, Inc., priority 2012, dated 2017).
# Key:
# MMP9 = MMP9 (Homo sapiens, UniProt P14780); test: Comparison of binding and inhibitory properties of anti-MMP9 antibodies; settings: AB0045 compared with AB0041
# CD4+ T cell = test: EpiScreen ex vivo human T cell activation assay (immunogenicity); assay type: cell-based
# Description: The potential clinical immunogenicity of the chimeric MMP9 antibody AB0041 and the humanized MMP9 antibody AB0045 was assessed. An ex vivo human T cell activation assay, the EpiScreen (Antitope, Ltd., Cambridge, UK) was used. The T cell activation in the EpiScreen assay has been correlated to the antibody/protein therapeutic responses in patients. The response of CD4+ T cell in 20 healthy donors, representing a variety of HLA haplotypes, was examined. […] A positive control of KLH induced a response in 95% of the donors, with a magnitude of 6.34+/−2.77 (mean+/−standard deviation).
# [1] = tested on: collagen-induced arthritis; test: Collagen-induced arthritis (CIA) rat model of established disease; assay type: in vivo
# Description: This example provides additional characterizations of the animals in example 7 that were treated with either vehicle, AB0041 (in the rat model) or AB0046 (in the mouse model) at 2, 10, or 50 mg/Kg, Enbrel at 10 mg/Kg, or methotrexate (MTX) at 0.5 mg/Kg.
# In addition to clinical scoring in Table 6 that was conducted in example 7, paw swelling, ankle diameter and body weights of the treated animals were measured. The measurements were conducted once a week before randomization and three times a week thereafter.
# In addition, hind limbs were examined microscopically for soft-tissue changes (edema, tissue/vessel necrosis, inflammatory cell infiltration, and fibroplasias) and cartilage and bone changes (cartilage erosion, bone erosion, periosteal bone formation, synovitis, pannus formation, and joint destruction). […] The severity scores were based on global changes in each limb.
# For anti-TNF-alpha scoring, the entire region of the limb anterior to the tarsal-metatarsal joint was scored. Anti-CD68 staining was evaluated using 3-4 images per limb of synovial membranes in the joints formed by the talus bone, with the scores of each membrane averaged and the value assigned as the overall inflammation score. […] Also, MMP9-expressing cells were identified as osteoclasts and cells of the monocyte/macrophage lineage.
# Further, serum panel analyses of terminal serum samples were characterized using ELISA. […] AB0046 titers were measured in terminal serum samples.
# adjuvant arthritis (AIA) = test: Adjuvant-induced arthritis (AIA) rat model of established disease; settings: in vivo
# Text: The anti-MMP9 antibody, AB0041, was efficacious in treating both inflammation and joint damage in both adjuvant and collagen-induced arthritis (AIA, CIA) rat rheumatoid arthritis models of established disease.
# [2] = tested on: lipopolysaccharide (LPS)-induced animal death; test: LPS-induced septicemia model; assay type: in vivo, rat; settings: after four days
# [3] = AB0041 serum levels by indirect binding ELISA in the MSS study; assay type: in vivo, rat; settings: Day 0 to Day 28; 50 mg/kg IV twice per week
# Description: Levels of AB0041 in rat serum were measured by an indirect binding ELISA. ELISA plates were coated with 2 μg/ml of […] in 50 mM sodium borate overnight at 4° C. The plates were blocked with 5% bovine serum albumin (BSA) in phosphate buffered saline, pH 7.4 (PBS) and washed with 0.05% Tween 20 in PBS (PBST). A standard curve was prepared by serially diluting AB0041 in PBST to generate a series ranging from 3,000 ng/ml to 1.5 ng/ml. Serum samples were diluted at least 1:100 in PBST then added to the pre-coated ELISA plate. After one-hour incubation, the plates were washed and polyclonal goat-anti mouse IgG-HRP detection antibody (Thermo Scientific, Fair Lawn, N.J.) was added to the plate at 1:10,000 dilution in 0.5% BSA/PBS. The plates were washed and signal was detected by addition of 3,3′,5,5′-tetramethylbenzidine (TMB) (Sigma Aldrich, St. Louis, Mo.) for 2 minutes. The reaction was stopped by addition of 1M hydrochloric acid (HCl) and absorbance at 450 nm was measured. AB0041 levels in serum were back-calculated using a four-parameter curve fit in the SoftMax software package (Molecular Devices).
# Lewis rats = settings: rat, in vivo
# Description: AB0041 was evaluated for safety in Lewis rats in comparison to the pan-MMP inhibitor, Marimastat, in a 28-day study.
# Six rats per group were intravenously administered twice per week with either AB0041 at 50 mg/kg or Vehicle-A (10 mM sodium phosphate, pH 6.5, 140 mM sodium chloride, 0.01% Tween20). In addition, six rats per group were treated with Marimastat or Vehicle-M (50% DMSO/50% water) through a surgically implanted subcutaneous Alzet pump (Alzet, Cupertino, Calif.), which delivered at a rate of 2.5 μl/hour for a period of 28 days. The Marimastat release rate was between 6.8 to 5.7 mg/kg/day.
# Animals were observed and scored daily for signs of MSS, such as reluctance to move and avoidance of the use of the hind feet. The following system was used to score resting posture, gait and willingness to move: resting posture was scored as 0 (normal), 1 (resting on one foot) or 2 (resting on neither one foot nor two feet). Gait was scored as either 0 (normal), 1 (avoids use of one hind foot) or 2 (avoids use of both hind feet). Willingness-to-move upon stimulation was scored as either 0 (normal movement), 1 (somewhat reluctant to move), 2 (moderately reluctant to move) or 3 (very reluctant to move). In addition, the body weights were recorded twice weekly.
# Total scores were calculated as the sum of gait score, resting posture score and willingness-to-move score for each animal. Mean total scores per group were calculated as the average of the total scores from all individual animals per group per day.
# Serum was collected from all rats on one day before and days 1, 7, 10, 14, 17, 21, 24, 28 post administration. Serum was centrifuged at 10,000×g for 10 minutes and collected for storage at −20° C. Serum was subject to multianalyte serum protein analysis (RodentMAPv2.0, IDEXX Laboratories).
# Tissues and limbs from the rats were harvested and fixed in 10% neutral buffered formalin for histopathologic analysis using hematoxylin and eosin (H&E).
# Chain of MMP9 (P14780 94-707, species assumed): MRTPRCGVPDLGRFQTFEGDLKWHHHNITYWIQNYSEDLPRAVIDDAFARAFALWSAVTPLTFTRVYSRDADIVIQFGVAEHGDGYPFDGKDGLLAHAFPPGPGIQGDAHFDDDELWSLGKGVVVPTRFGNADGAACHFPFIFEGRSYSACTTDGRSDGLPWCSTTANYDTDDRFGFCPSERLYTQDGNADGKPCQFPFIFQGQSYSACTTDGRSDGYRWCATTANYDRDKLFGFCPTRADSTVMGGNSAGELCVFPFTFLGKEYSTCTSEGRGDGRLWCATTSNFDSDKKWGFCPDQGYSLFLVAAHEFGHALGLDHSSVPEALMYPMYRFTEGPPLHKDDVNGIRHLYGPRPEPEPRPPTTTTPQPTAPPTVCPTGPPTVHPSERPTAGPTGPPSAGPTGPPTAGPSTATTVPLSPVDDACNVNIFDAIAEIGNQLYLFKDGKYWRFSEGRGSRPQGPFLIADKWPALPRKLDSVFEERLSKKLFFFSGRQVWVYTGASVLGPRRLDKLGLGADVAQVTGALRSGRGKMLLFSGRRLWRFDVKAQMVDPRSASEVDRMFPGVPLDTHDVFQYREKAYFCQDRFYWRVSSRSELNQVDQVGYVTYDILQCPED
molecule,measurement,setting,value
"AB0041: mouse monoclonal antibody to human MMP9, mouse IgG2b heavy chain (SEQ ID NO: 1) and mouse kappa light chain (SEQ ID NO: 2) (antibody, listed as Mus musculus, CHAIN (1)...(470) AB0041 heavy chain; CHAIN (1)...(234) AB0041 light chain) heavy: MAVLVLFLCLVAFPSCVLSQVQLKESGPGLVAPSQSLSITCTVSGFSLLSYGVHWVRQPPGKGLEWLGVIWTGGTTNYNSALMSRLSISKDDSKSQVFLKMNSLQTDDTAIYYCARYYYGMDYWGQGTSVTVSSAKTTPPSVYPLAPGCGDTTGSSVTLGCLVKGYFPESVTVTWNSGSLSSSVHTFPALLQSGLYTMSSSVTVPSSTWPSQTVTCSVAHPASSTTVDKKLEPSGPISTINPCPPCKECHKCPAPNLEGGPSVFIFPPNIKDVLMISLTPKVTCVVVDVSEDDPDVRISWFVNNVEVHTAQTQTHREDYNSTIRVVSALPIQHQDWMSGKEFKCKVNNKDLPSPIERTISKIKGLVRAPQVYILPPPAEQLSRKDVSLTCLVVGFNPGDISVEWTSNGHTEENYKDTAPVLDSDGSYFIYSKLDIKTSKWEKTDSFSCNVRHEGLKNYYLKKTISRSPGK light: MESQIQVFVFVFLWLSGVDGDIVMTQSHKFMSTSVGDRVSITCKASQDVRNTVAWYQQKTGQSPKLLIYSSSYRNTGVPDRFTGSGSGTDFTFTISSVQAEDLAVYFCQQHYITPYTFGGGTKLEIKRADAAPTVSIFPPSSEQLTSGGASVVCFLNNFYPKDINVKWKIDGSERQNGVLNSWTDQDSKDSTYSMSSTLTLTKDEYERHNSYTCEATHKTSTSPIVKSFNRNEC",binding and inhibitory properties,MMP9,equivalent binding and inhibitory properties
same,donors in which a response was induced,"CD4+ T cell; CD4+ T cell response, 20 healthy donors of various HLA haplotypes",20%
same,magnitude of response,CD4+ T cell; mean+/−standard deviation,2.29+/−0.36
same,"soft tissue disease, joint damage and destruction (histology)",[1]; 50 mg/kg,"reduced all measures of soft tissue diseases, joint damage and destruction"
same,CD68 score by IHC,"[1]; 50 mg/kg, compared to vehicle",significant reduction
same,TNF-alpha score by IHC,"[1]; 50 mg/kg, compared to vehicle",significant reduction
same,arthritis clinical scores,"[1]; 50, 10 and 2 mg/kg twice per week (4 doses)",reduced arthritis clinical scores
same,"qualitative and quantitative measurements of clinical disease (paw swelling, ankle diameter, body weight)","[1]; all doses (2, 10, 50 mg/Kg)",significant reversal/mitigation
same,"serum levels of TNFα, IL-6 and IL-17A",[1]; end of study,efficacious in reducing serum levels
same,"serum markers (TIMP-1, GM-CSF, MIP-2, MIP-1β, M-CSF-1, OSM, CXCL10, MCP-5, IL-12p70, INF-γ, IL-12, IL-7)","[1]; terminal serum, ELISA",statistically significant reduction
same,inflammation and joint damage,adjuvant arthritis (AIA),efficacious
same,animals surviving,[2],70%
same,mean steady-state serum levels,[3],2 to 4 mg/mL
same,H&E staining of hind knee joints,Lewis rats,No synovitis or fibrosis was observed
same,average MSS score,Lewis rats,zero
same,histopathology of primary organs (H&E),Lewis rats,No treatment-related abnormalities were observed
same,"rats with slight limping, avoidance of one hind foot (gait score=1)",Lewis rats,No symptoms were detected
same,serum chemistry panel,Lewis rats,within normal ranges
same,signs of MSS,"Lewis rats; iv, 50 mg/kg",No signs of MSS
